Results published in patent US20230322924A1 (Janssen / Centocor, published 2023).
Values belong to the binder of their own block, whether it stands above or below them.

Assays:
[1] = molecular target: T1, human CD33, full length, on cells (human, UniProt P20138 18-364); assay: flow cytometry on CD33 expressing HEK293F cells
T1 construct: SH2 and OCIAML3 carry SNP rs12459419 (hetero-/homozygous), which leads to a form without the V domain; also called Human CD33 (HEK293F transfectants); CD33 on AML cell lines KG1, SH2, OCIAML3
T1 sequence (P20138 18-364 limits assumed): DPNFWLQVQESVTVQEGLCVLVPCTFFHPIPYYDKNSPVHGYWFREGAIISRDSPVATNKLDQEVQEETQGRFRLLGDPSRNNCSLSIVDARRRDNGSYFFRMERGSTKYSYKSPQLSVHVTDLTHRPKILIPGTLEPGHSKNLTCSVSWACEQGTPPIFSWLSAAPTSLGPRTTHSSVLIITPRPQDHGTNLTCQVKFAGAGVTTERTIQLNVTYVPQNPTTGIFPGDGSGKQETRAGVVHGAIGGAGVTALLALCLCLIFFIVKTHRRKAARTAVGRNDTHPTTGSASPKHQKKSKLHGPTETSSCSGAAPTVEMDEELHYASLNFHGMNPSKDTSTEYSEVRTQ
Description: OMNIRat antibodies identified via immunization, v-region cloned and subsequently expressed and purified were characterized further for binding to CD33 expressing cells and binding to recombinant antigens. The purified antibodies were assessed for binding to stably transfected HEK293F cells expressing human CD33 or cyno CD33 (generation described above) along with the parental HEK293F as negative control. Cells were harvested from tissue culture flasks using non-enzymatic dissociation buffer (Thermo Scientific). The flasks were rinsed twice with PBS and dissociation buffer was added to the flask, and the flask was incubated for 10 minutes at 37° C. until the cells became non-adherent. The cells were centrifuged at 300 g for 5 minutes and resuspended at 1.0×10⁶ cells/ml in staining buffer (Becton Dickinson; Franklin Lakes, NJ). 50,000 cells/well of each cell type was plated in 50 μl of staining buffer in round bottom plates (Becton Dickinson). […] 30 μl running buffer containing Sytox Green live/dead dye (ThermoFisher) was added to all wells with cells and the plates were read on an iQue IntelliCyt flow cytometer. […] Antibody binding was assessed by the mean fluorescence intensity in the AF647 channel.

[2] = molecular target: T2, human PSMA on cells (LNCaP) (human, UniProt Q04609 1-750); assay: flow cytometry on LNCaP cells
T2 construct: whole, on cells; also called LNCaP cells
T2 sequence (Q04609 whole entry): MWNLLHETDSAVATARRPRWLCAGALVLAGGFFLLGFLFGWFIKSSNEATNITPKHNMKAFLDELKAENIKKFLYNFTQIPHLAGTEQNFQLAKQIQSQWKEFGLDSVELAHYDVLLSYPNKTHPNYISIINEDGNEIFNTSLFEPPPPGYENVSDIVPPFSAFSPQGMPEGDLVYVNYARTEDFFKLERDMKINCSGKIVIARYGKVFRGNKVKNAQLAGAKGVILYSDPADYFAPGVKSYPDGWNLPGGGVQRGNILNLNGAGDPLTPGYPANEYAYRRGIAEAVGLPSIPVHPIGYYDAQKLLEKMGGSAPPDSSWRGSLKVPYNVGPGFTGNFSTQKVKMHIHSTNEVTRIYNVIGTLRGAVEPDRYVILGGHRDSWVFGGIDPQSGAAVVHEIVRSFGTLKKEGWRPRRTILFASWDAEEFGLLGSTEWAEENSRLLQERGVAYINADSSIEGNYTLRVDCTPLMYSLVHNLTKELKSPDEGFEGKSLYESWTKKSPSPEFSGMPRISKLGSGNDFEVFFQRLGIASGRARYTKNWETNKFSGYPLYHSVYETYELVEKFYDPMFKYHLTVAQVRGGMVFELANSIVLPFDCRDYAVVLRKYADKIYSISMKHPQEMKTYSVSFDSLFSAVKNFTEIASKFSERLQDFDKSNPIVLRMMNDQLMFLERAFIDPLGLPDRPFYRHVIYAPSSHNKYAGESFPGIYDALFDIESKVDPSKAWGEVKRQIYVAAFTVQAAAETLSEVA
Description: PSMA×CD3 bispecific antibodies were tested for binding to PSMA positive cell line, LNCAP, to PSMA negative cell line, PC3. To assess the binding capabilities of the PSMA bispecific antibodies, the cell-binding assay was utilized (described previously). Bispecific antibodies were normalized for protein concentration and then incubated with the same number of cells expressing either human or cyno PSMA. The MFI at each concentration was collected by flow cytometry and plotted as a function of concentration. Data was transformed via log 10 and then plotted. Nonlinear regression of binding curves was done to determine EC50s.

B1: C33B909 (antibody, V domains shown)
VH: EVQLVESGGGLVQPGRSLRLSCVASGFTFDDYAIHWVRQAPGKGLEWVSGLSWNGGNIGYADSVKGRFTISRDNAKNSLYLQMNSLKTEDTAFYYCTKDTPYGDYFDYWGQGTLVTVSS
VL: DIQMTQSPSSVWASVGDRVTITCRASQGISSWLAWYQQQPGKAPNLLIYRSSSLQSGVPSRFSGSGSGTDFTLTISSLQPEDFATYYCQQDNSFPYTFGQGTKLEIK
notes: OmniMouse clone; also called C33H249/C33L115
binding result [1]: no binding (tested: 60 nM highest tested)

binding result [2]: binds
B2: PS3B90 (bispecific antibody, human IgG4 S228P, kappa, lambda, F234A L235A)
heavy 1: not shown
light 1: not shown
heavy 2: QVQLQQSGPRLVRPSQTLSLTCAISGDSVFNNNAAWSWIRQSPSRGLEWLGRTYYRSKWLYDYAVSVKSRITVNPDTSRNQFTLQLNSVTPEDTALYYCARGYSSSFDYWGQGTLVTVSSASTKGPSVFPLAPCSRSTSESTAALGCLVKDYFPEPVTVSWNSGALTSGVHTFPAVLQSSGLYSLSSVVTVPSSSLGTKTYTCNVDHKPSNTKVDKRVESKYGPPCPPCPAPEAAGGPSVFLFPPKPKDTLMISRTPEVTCVVVDVSQEDPEVQFNWYVDGVEVHNAKTKPREEQFNSTYRVVSVLTVLHQDWLNGKEYKCKVSNKGLPSSIEKTISKAKGQPREPQVYTLPPSQEEMTKNQVSLTCLVKGFYPSDIAVEWESNGQPENNYKTTPPVLDSDGSFLLYSKLTVDKSRWQEGNVFSCSVMHEALHNHYTQKSLSLSLGK
light 2: QSALTQPASVSGSPGQSITISCTGTSSNIGTYKFVSWYQQHPDKAPKVLLYEVSKRPSGVSSRFSGSKSGNTASLTISGLQAEDQADYHCVSYAGSGTLLFGGGTKLTVLGQPKAAPSVTLFPPSSEELQANKATLVCLISDFYPGAVTVAWKADSSPVKAGVETTTPSKQSNNKYAASSYLSLTPEQWKSHRSYSCQVTHEGSTVEKTVAPTECS
notes: IgG4 PAA; also called PSMB365 x CD3B376
